Article PMC5028754, “Structural studies of the yeast DNA damage-inducible protein Ddi1 reveal domain architecture of this eukaryotic protein family” (Scientific Reports, 2016)

Tests used:
[1] = biological target: T1, bovine ubiquitin (bovine, UniProt P0CG53 1-76); assay: ITC; ubiquitin or K48-Ub2 injected from the syringe into the Ddi1 construct in the sample cell; 50 mM HEPES, pH 7.4, 150 mM NaCl, 25 °C; VP-ITC; one-site model varying N, Kd and ΔH; full-length Ddi1 with ubiquitin also fitted to a two-sites model with N fixed to 1.0; settings: both partners purified
T1 construct: ubiquitin, bovine (cut product of the ubiquitin precursors); source: bought: Sigma, cat. no; U6253

[2] = biological target: the molecule itself; assay: crystal structure; Ddi1 RVP 185-325, 1.8 Å; crystallized in 0.1 M phosphate-citrate, pH 4.2, 0.4 M NaCl, 20% PEG 8000; two chains in the asymmetric unit

B1: Ddi1 UBL-RVP (1-325) (domain or fragment, S. cerevisiae, UniProt P40087 1-325, looked up)
chain: MDLTISNELTGEIYGPIEVSEDMALTDLIALLQADCGFDKTKHDLYYNMDILDSNRTQSLKELGLKTDDLLLIRGKISNSIQTDAATLSDEAFIEQFRQELLNNQMLRSQLILQIPGLNDLVNDPLLFRERLGPLILQRRYGGYNTAMNPFGIPQDEYTRLMANPDDPDNKKRIAELLDQQAIDEQLRNAIEYTPEMFTQVPMLYINIEINNYPVKAFVDTGAQTTIMSTRLAKKTGLSRMIDKRFIGEARGVGTGKIIGRIHQAQVKIETQYIPCSFTVLDTDIDVLIGLDMLKRHLACVDLKENVLRIAEVETSFLSEAEIPK
notes: Contains the RVP domain; also called UBL-RVP construct (without the UBA)
For B1, which Kd [1] is on record?
Its Kd is 310 µM.

B2: Ddi1 RVP-UBA (180-428) (domain or fragment, S. cerevisiae, UniProt P40087 180-428, looked up)
chain: QQAIDEQLRNAIEYTPEMFTQVPMLYINIEINNYPVKAFVDTGAQTTIMSTRLAKKTGLSRMIDKRFIGEARGVGTGKIIGRIHQAQVKIETQYIPCSFTVLDTDIDVLIGLDMLKRHLACVDLKENVLRIAEVETSFLSEAEIPKSFQEGLPAPTSVTTSSDKPLTPTKTSSTLPPQPGAVPALAPRTGMGPTPTGRSTAGATTATGRTFPEQTIKQLMDLGFPRDAVVKALKQTNGNAEFAASLLFQ
notes: Ddi1 of Saccharomyces cerevisiae, residues 180-428 (RVP to UBA, lacks the UBL), cloned into pET16b; Contains the RVP domain; also called RVP-UBA construct (without the UBL)
For B2, which Kd [1] is on record?
The Kd was 43 µM.

B3: Ddi1 RVP (residues 185-325) (domain or fragment, S. cerevisiae, UniProt P40087 185-325, looked up)
chain: EQLRNAIEYTPEMFTQVPMLYINIEINNYPVKAFVDTGAQTTIMSTRLAKKTGLSRMIDKRFIGEARGVGTGKIIGRIHQAQVKIETQYIPCSFTVLDTDIDVLIGLDMLKRHLACVDLKENVLRIAEVETSFLSEAEIPK
notes: MALDI-TOF 16,320 Da (predicted 16,313 Da); also called RVP domain; Ddi1 retroviral protease-like domain; source: E. coli BL21(DE3), purified (glutathione-sepharose, 3C cleavage, gel filtration); not shown: GST, N-terminal, cleaved
How did the “stoichiometry N” value [2] turn out when B3 was run?
Its value is 2.

B4: full-length yeast Ddi1 (natural protein, S. cerevisiae, UniProt P40087 1-428, looked up)
chain: MDLTISNELTGEIYGPIEVSEDMALTDLIALLQADCGFDKTKHDLYYNMDILDSNRTQSLKELGLKTDDLLLIRGKISNSIQTDAATLSDEAFIEQFRQELLNNQMLRSQLILQIPGLNDLVNDPLLFRERLGPLILQRRYGGYNTAMNPFGIPQDEYTRLMANPDDPDNKKRIAELLDQQAIDEQLRNAIEYTPEMFTQVPMLYINIEINNYPVKAFVDTGAQTTIMSTRLAKKTGLSRMIDKRFIGEARGVGTGKIIGRIHQAQVKIETQYIPCSFTVLDTDIDVLIGLDMLKRHLACVDLKENVLRIAEVETSFLSEAEIPKSFQEGLPAPTSVTTSSDKPLTPTKTSSTLPPQPGAVPALAPRTGMGPTPTGRSTAGATTATGRTFPEQTIKQLMDLGFPRDAVVKALKQTNGNAEFAASLLFQ
notes: Ddi1 of Saccharomyces cerevisiae, full length, cloned into pET16b; ITC concentration calculated to monomer; also called Ddi1 FL; DNA damage-inducible protein Ddi1
How did the Kd [1] turn out when B4 was run?
Its Kd is 320 µM.
